{"source": "paper PMC9828297", "about": "(Acta Biochimica et Biophysica Sinica, 2022)", "proteins": {"B1": {"name": "polyketide cyclase from Mycobacterium tuberculosis (MtPC) (natural protein)", "chain": "MGSTPPRTPQEVFAHHGQALAAGDLDEIVADYADDSFVITPAGIARGKEGIRQLFVKLLDDIPNALWDLKTQIFEGDILFLEWTANSAVSRVDDGVDTFVFRDGTIWAHTVRYTPHPKT"}}, "biological_target": "the molecule itself", "assay": "SEC", "data": [{"protein": "B1", "values": [{"measurement": "stoichiometry N", "result": 2}]}]}
